These results are taken from PMC10107544, “Selecting Better Biocatalysts by Complementing Recoded Bacteria” (Angewandte Chemie (International Ed. in English), 2022).

Broadly, the kcat is the maximal rate divided by the concentration of active sites. By kcat/Km is commonly meant the second-order rate constant that governs catalysis at low substrate concentration.

Assay type in all cases: biochemical, Sinorhizobium meliloti
What all share (conditions): free enzyme; kinetic pH and metal not given

Substrate in series [1]: NC(=O)N[C@@H](Cc1ccc(O)c([N+](=O)[O-])c1)C(=O)O
The series is described as follows: HPLC saturation kinetics, Michaelis-Menten fit. From the text: HPLC saturation kinetics, Michaelis-Menten fit on […]

Substrate in series [2]: NC(=O)N[C@@H](Cc1ccc(O)c(I)c1)C(=O)O
In words: saturation kinetics, Michaelis-Menten fit. From the text: (§1) saturation kinetics, Michaelis-Menten fit on […]

Substrate in series [3]: NC(=O)N[C@@H](Cc1ccc(O)c([N+](=O)[O-])c1)C(=O)O
In words: saturation kinetics, Michaelis-Menten fit.
Description: as §1

Substitutions are numbered along the chain they refer to. Names may count otherwise.

B1: SmLcar (Sinorhizobium meliloti) (protein)
chain: MAAPGENRRVNADRLWDSLMEMAKIGPGVAGGNNRQTLTDADGEGRRLFQSWCEEAGLSMGVDKMGTMFLTRPGTDPDALPVHIGSHLDTQPTGGKFDGVLGVLSGLEAVRTMNDLGIKTKHPIVVTNWTNEEGARFAPAMLASGVFAGVHTLEYAYARKDPEGKSFGDELKRIGWLGDEEVGARKMHAYFEYHIEQGPILEAENKQIGVVTHCQGLWWLEFTLTGREAHTGSTPMDMRVNAGLAMARILEMVQTVAMENQPGAVGGVGQMFFSPNSRNVLPGKVVFTVDIRSPDQAKLDGMRARIEAEAPKICERLGVGCSIEAVGHFDPVTFDPKLVETVRGAAEKLGYSHMNLVSGAGHDACWAAKVAPTTMIMCPCVGGLSHNEAEDISREWAAAGADVLFHAVLETAEIVE
notes: recombinant, produced from plasmid and purified; bivalent metal-dependent
Consider B1, for which, in series [1], the Km is recorded as 2.98 (0.87) mM, the kcat was 0.000105 ± 1.01e-05 s⁻¹ and the catalytic efficiency (kcat/Km) is 0.0354 ± 0.00977 M⁻¹ s⁻¹. Further, in series [2], the Km is 13.8 (7.91) mM, the turnover number (kcat) came out at 6.92e-05 ± 2.09e-05 s⁻¹ and the kcat/Km is 0.005 ± 0.00315 M⁻¹ s⁻¹.

B2: SmLcar (Sinorhizobium meliloti; F329Y/L217G) (protein)
chain: B1 chain with L217G, F329Y
notes: as for B1
Take B2: in series [2], the Km is 1.45 (0.16) mM, the catalytic constant (kcat) was found to be 0.231 s⁻¹ and the kcat/Km came to 159 M⁻¹ s⁻¹. Moreover, in series [3], the Km is on record as 5.30 (0.88) mM, the kcat was determined as 0.78 s⁻¹ and the kcat/Km stood at 148 M⁻¹ s⁻¹.

B3: SmLcar (Sinorhizobium meliloti; F329C/L217G) (protein)
chain: B1 chain with L217G, F329C
notes: as for B1
As to B3, in series [2], the Km was 5.71 (1.14) mM, the kcat came out at 4.84 s⁻¹ and the kcat/Km amounted to 849 M⁻¹ s⁻¹. In addition, in series [3], the Km was 2.92 (0.95) mM, the kcat is 0.32 s⁻¹ and the specificity constant (kcat/Km) was found to be 108 M⁻¹ s⁻¹.

B4: SmLcar (Sinorhizobium meliloti; L217G) (protein)
chain: B1 chain with L217G
notes: as for B1
As for B4, in series [2], the Km is given as 2.58 (0.46) mM, the kcat was found to be 0.232 s⁻¹ and the kcat/Km was 89.9 M⁻¹ s⁻¹. In series [3], the Km is given as 8.91 (2.81) mM, the kcat was found to be 0.0929 ± 0.0136 s⁻¹ and the kcat/Km came out at 10.4 M⁻¹ s⁻¹.
